In patent US20240279325A1 (Chugai, published 2024):
Where a chain is given by its changes, count along the chain named. Names and notes keep the numbering of the source.

B1: IL6R-BP262/IL6R-L (antibody, human IgG1, kappa, name in EU numbering)
heavy: QVQLQESGPGLVKPSETLSLTCAVSGHSISHDHAWSWVRQPPGEGLEWIGFISYSGITNYNPSLQGRVTISRDNSKNTLYLQMNSLRAEDTAVYYCARSLARTTAMDYWGEGTLVTVSSASTKGPSVFPLAPSSKSTSGGTAALGCLVKDYFPEPVTVSWNSGALTSGVHTFPAVLQSSGLYSLSSVVTVPSSSLGTQTYICNVNHKPSNTKVDKKVEPKSCDKTHTCPPCPAPELLGDDSVFLFPPKPKDTLMISRTPEVTCVVVDVSEEDGEVKFNWYVDGVEVHNAKTKPREEQYNSTYRVVSVLTVLHQDWLNGKEYKCKVSNKALPAPIEKTISKAKGQPREPQVYTLPPSRDELTKNQVSLTCLVKGFYPSDIAVEWESNGQPENNYKTTPPVLDSDGSFFLYSKLTVDKSRWQQGNVFSCSVMHEALHNHYTQESLSLSP
light: not shown
notes: copies: 2 + 2
B2: IL6R-BP269/IL6R-L (antibody, human IgG1, kappa, name in EU numbering)
heavy: B1 heavy with Y298D
light: not shown
notes: copies: 2 + 2
B3: IL6R-BP479/IL6R-L (antibody, human IgG1, kappa, name in EU numbering)
heavy: B1 heavy with E235D, V266I, V268L, S269A
light: not shown
notes: copies: 2 + 2
B4: IL6R-BP481/IL6R-L (antibody, human IgG1, kappa, name in EU numbering)
heavy: B1 heavy with E235D, V266I, S269A
light: not shown
notes: copies: 2 + 2
B5: IL6R-BP483/IL6R-L (antibody, human IgG1, kappa, name in EU numbering)
heavy: B1 heavy with E235D, V268L, S269A
light: not shown
notes: copies: 2 + 2
B6: IL6R-BP484/IL6R-L (antibody, human IgG1, kappa, name in EU numbering)
heavy: B1 heavy with E235D, S269A, E271D
light: not shown
notes: copies: 2 + 2
B7: IL6R-BP487/IL6R-L (antibody, human IgG1, kappa, name in EU numbering)
heavy: B1 heavy with E235D, V266I, S269A, A332R, P398M
light: not shown
notes: copies: 2 + 2
B8: IL6R-BP489/IL6R-L (antibody, human IgG1, kappa, name in EU numbering)
heavy: B1 heavy with E235D, V266I, S269A, Y298D, A332R, P398M
light: not shown
notes: copies: 2 + 2
B9: IL6R-BP491/IL6R-L (antibody, human IgG1, kappa, name in EU numbering)
heavy: B1 heavy with V266I, S269A, Y298D, A332R
light: not shown
notes: also called IL6R-491/IL6R-L; copies: 2 + 2
B10: IL6R-BP492/IL6R-L (antibody, human IgG1, kappa, name in EU numbering)
heavy: B1 heavy with D239G, V266I, S269A
light: not shown
notes: copies: 2 + 2
B11: IL6R-BP496/IL6R-L (antibody, human IgG1, kappa, name in EU numbering)
heavy: B1 heavy with E235D, V266I, S269A, Y298D
light: not shown
notes: copies: 2 + 2
B12: IL6R-BP497/IL6R-L (antibody, human IgG1, kappa, name in EU numbering)
heavy: B1 heavy with E235D, V266I, S269A, A329G, A332R
light: not shown
notes: copies: 2 + 2
B13: IL6R-BP498/IL6R-L (antibody, human IgG1, kappa, name in EU numbering)
heavy: B1 heavy with E235D, V266I, S269A, A332R, P398L
light: not shown
notes: copies: 2 + 2
B14: IL6R-BP499/IL6R-L (antibody, human IgG1, kappa, name in EU numbering)
heavy: B1 heavy with E235D, V266I, S269A, Y298D, A332R, P398L
light: not shown
notes: copies: 2 + 2
B15: IL6R-BP500/IL6R-L (antibody, human IgG1, kappa, name in EU numbering)
heavy: B1 heavy with V266I, S269A, Y298D
light: not shown
notes: copies: 2 + 2
B16: IL6R-BP502/IL6R-L (antibody, human IgG1, kappa, name in EU numbering)
heavy: B1 heavy with E235D, V266I, S269A, Y298D, A329G, A332R
light: not shown
notes: copies: 2 + 2
B17: IL6R-2B002/IL6R-L (antibody, human IgG1, kappa, name in EU numbering)
heavy: B1 heavy with E235D, D239G, E270H, G273P
light: not shown
notes: Alterations introduced into IL6R-B3; also called P238D/E233D; copies: 2 + 2
B18: IL6R-2B128/IL6R-L (antibody, human IgG1, kappa, name in EU numbering)
heavy: B1 heavy with D239G, E270H, G273P, Y298D
light: not shown
notes: Alterations introduced into IL6R-B3; also called P238D/Y296D; copies: 2 + 2
B19: IL6R-2B169/IL6R-L (antibody, human IgG1, kappa, name in EU numbering)
heavy: B1 heavy with D239G, E270H, G273P, V325I
light: not shown
notes: Alterations introduced into IL6R-B3; also called P238D/V323I; copies: 2 + 2

target: T1, FcγRIIb extracellular domain with C-terminal His tag (human, UniProt P31994 43-217); assay: SPR; KD for FcγRIIaH divided by KD for FcγRIIb
T1 construct: extracellular domain
T1 sequence (looked up): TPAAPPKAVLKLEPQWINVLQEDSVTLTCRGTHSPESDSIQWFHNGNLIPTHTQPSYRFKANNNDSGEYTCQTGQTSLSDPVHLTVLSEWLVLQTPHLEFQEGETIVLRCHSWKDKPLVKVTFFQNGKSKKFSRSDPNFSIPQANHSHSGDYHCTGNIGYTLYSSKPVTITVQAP

Binder | KD(IIaH)/KD(IIb)
B1 | 375
B2 | 637
B3 | 268
B4 | 350
B5 | 231
B6 | 241
B7 | 730
B8 | 870
B9 | 724
B10 | 678
B11 | 201
B12 | 236
B13 | 564
B14 | 685
B15 | 1030
B16 | 352

target: T2, FcγRIIa type R (allotype R131) extracellular domain with C-terminal His tag (human, UniProt P12318 34-217); assay: SPR; KD of IL6R-B3/IL6R-L divided by KD of the variant
T2 construct: extracellular domain; also called FcγRIIaR; FcγRIIa R type
T2 sequence (looked up): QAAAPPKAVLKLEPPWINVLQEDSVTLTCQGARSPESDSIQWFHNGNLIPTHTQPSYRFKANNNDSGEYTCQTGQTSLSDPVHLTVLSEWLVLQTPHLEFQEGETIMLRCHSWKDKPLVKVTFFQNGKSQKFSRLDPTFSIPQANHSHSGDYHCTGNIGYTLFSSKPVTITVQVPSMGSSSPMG

Binder | KD(IIaR) OF PARENT POLYPEPTIDE/KD(IIaR) OF ALTERED POLYPEPTIDE
B1 | 0.5
B2 | 0.5
B3 | 1.2
B4 | 2.8
B5 | 0.8
B6 | 1.4
B7 | 28.3
B8 | 25.7
B9 | 9.3
B10 | 1.2
B11 | 2.3
B12 | 12.9
B13 | 21.7
B14 | 22.3
B15 | 1.5
B16 | 10.1

target: T1, FcγRIIb extracellular domain with …; assay: as above

Binder | KD(IIb) OF PARENT POLYPEPTIDE/KD(IIb) OF ALTERED POLYPEPTIDE
B1 | 25.8
B2 | 27.4
B3 | 55.5
B4 | 160
B5 | 39.7
B6 | 67.3
B7 | 2700
B8 | 3100
B9 | 1020
B10 | 131
B11 | 168
B12 | 764
B13 | 1880
B14 | 2120
B15 | 128
B16 | 810

target: T1, FcγRIIb extracellular domain with …; assay: SPR; KD for FcγRIIaR divided by KD for FcγRIIb

Binder | KD(IIaR)/KD(IIb)
B1 | 17
B2 | 19.6
B3 | 16.1
B4 | 20.5
B6 | 17.1
B7 | 33.8
B8 | 42.8
B9 | 38.8
B10 | 38.8
B11 | 25.5
B12 | 21
B13 | 30.3
B14 | 33.8
B15 | 29.9
B16 | 29.5

target: T3, human FcγRIIIa type V (allotype V158) extracellular domain with C-terminal His tag (human, UniProt P08637 17-208); assay: SPR (Biacore), antibody captured, FcγR analyte
T3 construct: also called FcγRIIIaV
T3 sequence (P08637 other isoform, or with tags, fused parts or gaps): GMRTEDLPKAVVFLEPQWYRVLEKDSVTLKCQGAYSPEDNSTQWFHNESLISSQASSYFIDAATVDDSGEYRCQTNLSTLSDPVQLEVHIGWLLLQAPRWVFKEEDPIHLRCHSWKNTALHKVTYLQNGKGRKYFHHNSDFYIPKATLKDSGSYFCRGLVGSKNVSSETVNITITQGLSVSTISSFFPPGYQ

Binder | Kd
B17 | 53 µM
B18 | 72 µM
B19 | 75 µM
